Reference: patent US20210388087A1 (Chugai, published 2021)
Substitutions are numbered along the chain they refer to.

B1: CE115HA000 K52bS (antibody, human IgG1, kappa, L234A L235A, N297A, name in Kabat numbering)
heavy: QVQLVESGGGVVQPGRSLRLSCAASGFTFSNAWMHWVRQAPGKGLEWVAQIKASSNNYATYYAESVKGRFTISRDDSKNSLYLQMNSLKTEDTAVYYCRYVHYGAYYGVDAWGQGTTVTVSSASTKGPSVFPLAPSSKSTSGGTAALGCLVKDYFPEPVTVSWNSGALTSGVHTFPAVLQSSGLYSLSSVVTVPSSSLGTQTYICNVNHKPSNTKVDKKVEPKSCDKTHTCPPCPAPEAAGGPSVFLFPPKPKDTLMISRTPEVTCVVVDVSHEDPEVKFNWYVDGVEVHNAKTKPREEQYASTYRVVSVLTVLHQDWLNGKEYKCKVSNKALPAPIEKTISKAKGQPREPQVYTLPPSRCELTKNQVSLSCAVKGFYPSDIAVEWESNGQPENNYKTTPPVLDSDGSFFLVSKLTVDKSRWQQGNVFSCSVMHEALHNHYTQKSLSLSPDYKDDDDK
chain: EPKSSDKTHTCPPCPAPELLGGPSVFLFPPKPKDTLMISRTPEVTCVVVDVSHEDPEVKFNWYVDGVEVHNAKTKPREEQYNSTYRVVSVLTVLHQDWLNGKEYKCKVSNKALPAPIEKTISKAKGQPREPQVCTLPPSRDELTKNQVSLWCLVKGFYPSDIAVEWESNGQPENNYKTTPPVLDSDGSFFLYSKLTVDKSRWQQGNVFSCSVMHEALHNRYTQKSLSLSP
light: DIVMTQSPLSLPVTPGEPASISCRSSQSLVHSNRNTYLHWYQQKPGQAPRLLIYKVSNRFSGVPDRFSGSGSGTDFTLKISRVEAEDVGVYYCGQGTQVPYTFGQGTKLEIKRTVAAPSVFIFPPSDEQLKSGTASVVCLLNNFYPREAKVQWKVDNALQSGNSQESVTEQDSKDSTYSLSSTLTLSKADYEKHKVYACEVTHQGLSSPVTKSFNRGEC
notes: one-arm antibody
B2: CE115HA000 K52bY (antibody, human IgG1, kappa, L234A L235A, N297A, name in Kabat numbering)
heavy: B1 heavy with S54Y
chain: B1 chain
light: B1 light
notes: one-arm antibody
B3: CE115HA000 K64A (antibody, human IgG1, kappa, L234A L235A, N297A, name in Kabat numbering)
heavy: B1 heavy with S54K, K67A
chain: B1 chain
light: B1 light
notes: one-arm antibody
B4: CE115HA000 K64D (antibody, human IgG1, kappa, L234A L235A, N297A, name in Kabat numbering)
heavy: B1 heavy with S54K, K67D
chain: B1 chain
light: B1 light
notes: one-arm antibody
B5: CE115HA000 K64E (antibody, human IgG1, kappa, L234A L235A, N297A, name in Kabat numbering)
heavy: B1 heavy with S54K, K67E
chain: B1 chain
light: B1 light
notes: one-arm antibody
B6: CE115HA000 K64Q (antibody, human IgG1, kappa, L234A L235A, N297A, name in Kabat numbering)
heavy: B1 heavy with S54K, K67Q
chain: B1 chain
light: B1 light
notes: one-arm antibody
B7: CE115HA000 K64S (antibody, human IgG1, kappa, L234A L235A, N297A, name in Kabat numbering)
heavy: B1 heavy with S54K, K67S
chain: B1 chain
light: B1 light
notes: one-arm antibody
B8: CE115HA000 K75R (antibody, human IgG1, kappa, L234A L235A, N297A, name in Kabat numbering)
heavy: B1 heavy with S54K, K78R
chain: B1 chain
light: B1 light
notes: one-arm antibody
B9: CE115HA000 K75T (antibody, human IgG1, kappa, L234A L235A, N297A, name in Kabat numbering)
heavy: B1 heavy with S54K, K78T
chain: B1 chain
light: B1 light
notes: one-arm antibody
B10: CE115HA000 L78I (antibody, human IgG1, kappa, L234A L235A, N297A, name in Kabat numbering)
heavy: B1 heavy with S54K, L81I
chain: B1 chain
light: B1 light
notes: one-arm antibody

Biological target: T1, CD3 epsilon homodimer protein (UniProt P07766 23-126)
T1 construct: also called CD3 (CD3 epsilon)
T1 sequence (P07766 23-126): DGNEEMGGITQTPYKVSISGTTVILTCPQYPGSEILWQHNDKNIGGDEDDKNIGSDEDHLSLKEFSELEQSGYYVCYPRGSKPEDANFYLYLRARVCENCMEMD
Assay: SPR, CD3 epsilon homodimer on chip, one-arm antibody as analyte;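 further: surface plasmon resonance at 25 °C with CD3 epsilon homodimer amine-coupled to a CM4 sensor chip, antibody injected as analyte, HBS-EP+ as running buffer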

Q: With B1 as the binder, how does the “KD ratio (KD of CE115HA000/KD of altered form)” value (from here on “KD ratio”) read?
A: 0.58

Q: With B2 as the binder, how does the “KD ratio” value read?
A: 0.61

Q: Which “KD ratio” value does the source give for B3 here?
A: 0.81

Q: B4 was tested. Which “KD ratio” value did it give?
A: 0.76

Q: Which “KD ratio” value does the source give for B5 here?
A: 0.84

Q: How did the “KD ratio” value turn out when B6 was run?
A: 0.87

Q: How did the “KD ratio” value turn out when B7 was run?
A: 0.85

Q: For B8, which “KD ratio” value is on record?
A: 0.88

Q: For B9, which “KD ratio” value is on record?
A: 0.75

Q: B10 was tested. Which “KD ratio” value did it give?
A: 1.08
